Experimental data: the domain aggregation screens of Martell et al. (2025)

Assay: soluble fraction after stress (log2 fold change); higher = more stays soluble; pooled small domains, quantitative proteomics
Details: stress: pH 4
Procedure, shortened: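 After pH 4 stress, pooled custom libraries of small protein domains were quantified with high-throughput quantitative proteomics. Aggregation propensity is taken from the fold change in each domain's soluble amount following the acid stress. The scale is log2, where higher values mean more stayed soluble.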

| Sequence | soluble fraction (log2) |
| --- | --- |
| HMSASIAEGTVIMLENTTNIRSGMSEDSSKVGTAYAGEKVTVVMSYAEGWTKVKWNGETGYIKTALLQL | -0.405 |
| HMSASNSIDFANRMIYNKNQVAVFNFGKHMGRPVLEVLKSDPSYYDWMMKGDFPMDTKRKLTEIKLQGF | -0.173 |
| HMSATPQRMTIIDALDSSGKNLSAYELLDLLNDKGQLFNISTIYRVLDFWIEMGIVHKINSSNTYL | 0.132 |
| HMSATQDAAIAVRIRDILSELDGYEDVTVTVTSGIVTMRGTTLDSEKIARLNDLTGRVEGVVAIENSVTET | -2.31 |
| HMSAVIGTATVTTSSGSLNLRESASLYSRVIRTIPRGATVDVLSRDTSWSRVRYAGSEGYVLNQYLTFQT | ≥ 0.43 |
| HMSDAGMNQIGDMFRAPDLMAKLAMNPATREYVSQPDFLAMMEEVKRNPSALNNHLRDPRMMNVLSVAM | -0.48 |
| HMSDAPLLSIRSLAVAFDGTRVVDGVSFDVARGEVVALVGESGSGKTVTGLSLLDLVPPPGRRVGGEV | -0.025 |
| HMSDDAVVRMRVPEDALGLSLRETDFRQRFGVYVLAIETRDGKLLAPPDPQRPLGKDDVLVVIQKR | -0.279 |
| HMSDDLLTGLDAYSRGDWTTATASFERVLTTADPNNRTEALYWLVMSETSAQNYQRALNYANTFL | -0.887 |
| HMSDDSTIVELLASSLRRDIAFGTLLPDQKLKLNELRTRYGGSIHSMRETLRILSAEGLVEATAQRGFRVT | -0.395 |
| HMSDEIQLQFIQISIFKDHPWADMQIKDMNIIPDLLIVMILRDGERIIPNGNTRIMPGDMVIITAMSANT | -1.7 |
| HMSDESALIAAIEKAIAAQPETAEKVRNGHLPAAGALIGSVMKETKGQADAARVRELLLGLLGQ | 0.0231 |
| HMSDESRAEIVSSAKRLFQQYGYKKTTVSDIAKAMGKVKSAIYYYFPDKESLLRAVIDEEVG | 0.132 |
| HMSDFEASDPALLREGMRVQHLNFGKGTVITIEGAGANKKASVAFDGVGTKQLMLRFARLKIIYE | -0.622 |
| HMSDFKDIILKLRNEQGFTQEKLADVLGTSKSTVGMWEMGVRFPSKELYEAIADYFNVDIDYLYGRTDIR | -1.35 |
| HMSDGYETLVNMAKPFLNNSKQITENDITDAVNTVSVMLKKRYDMTDEDIRKAVSELLHFYA | -0.791 |
| HMSDIDHIAGRRIRQARLNAGMTLETLASQAGISKALLSKIENSKVSSPLATFSKISKVLGVPLSDLLKE | 0.204 |
| HMSDILALMPGTIKQILVAPGDSVKRGQTVIIMESMKMELTIAAHRDGVVKRIPVEQGGQVEKGMRLLELE | -0.263 |
| HMSDIPEGYMSRVQLGDEWGIHLATFDKAVIAVKEKLGTVVFIDKSNNTTAGYSPEQQTIIYDWLAEN | 0.29 |
| HMSDKNVYGKYKNVFLSDEEFSELKQFYPNDWSDRIETLSEGIELKGYKYKNYLLAIKKWAEYEGQKAD | -0.77 |
| HMSDKPIFIDTAGIAALSAIGFSKYQATIIFNYIKKGGAIYTVKDLAKIYSIDQKTIDLTQSKIIFS | 0.22 |
| HMSDKPRYYINGNTLFISDKSVKKVLFSDLSGRSILHTTETAINIATFRGAHILTVIYTDGSTKSEVIF | 0.235 |
| HMSDLLYAHPTEKGFQLVNVTQKVVMVILKTAAPNVYTVKGKNAIVFKEGNSWFYSENHNKKLLNIK | -0.1 |
| HMSDLQTGDINQDGTVDEKDLSLLHSYNLELIKTISNAADLNEDGVINGLDEAYLKRLFLQNSDP | -0.142 |
| HMSDLTEVIVKFSGDIQPIRQDLDAQVEILLKGYAIITLSPNKIGRLYSYPQIESIEIPKNLYI | -0.833 |
| HMSDPASLQRRLMSDPELTARILDSPFTRSLLDDPNLLRQMVNANPQLRRAMDANPQLRHAL | -0.261 |
| HMSDPEAFIRQTVAAAEPEGIALSVLGKRVRGKFRTFKLRDLGYAQFRPYLGDLDGIKVEQRDGQSYARLD | 0.045 |
| HMSDPSRKADFIAALSSLGGSAGNGKLREQLGWDEPTYDAVKQTLLDEGAITNGRGRGGSVALAG | 0.146 |
| HMSDPTDRLVLEAALKALGEEERQVVLLHAASGLKHREIARDLGLPLSTVLSRYSRALKKLQRYLTEEGVH | -0.461 |
| HMSDPVDDLLLRISQQAGVARGQLVAELNMLVQDRFGGNLRHEAAAVLMAKRYGIEFRDLLPALREHLVKN | -0.469 |
